From PMC7673117

Experiments:
[1] = target: HLA-E loaded with Peptide 9 on 721.174 cells (human (endogenous in 721.174 cells) | Epstein-Barr virus (B95.8 laboratory strain)) (UniProt P13747)
[2] = target: HLA-E loaded with Peptide 19 on 721.174 cells (human (endogenous in 721.174 cells) | Epstein-Barr virus (B95.8 laboratory strain)) (UniProt P13747)
[3] = target: HLA-E loaded with Peptide 12 (…) on 721.174 cells (human (endogenous in 721.174 cells) | Epstein-Barr virus (B95.8 laboratory strain)) (UniProt P13747)

Measured: cytotoxicity of sorted NKG2A+NKG2C- NK cells against peptide-pulsed 721.174 cells, E:T 3:1, 5 h

NKG2A/CD94 receptor on primary human NK cells (from UniProt P26715;Q13241)
> 80%: all assays above
